# Data reported in the nanobody polyreactivity screen of Harvey et al. (2022).
# Test: yeast display, Sf9 membrane polyspecificity reagent, FACS + sequencing; frameworks hold sequencing errors
# Summary of the method: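 Genes from sorted yeast were amplified by colony PCR, read by MiSeq 2 × 250 sequencing and filtered on CDR length. These cells carried a synthetic nanobody library in Saccharomyces cerevisiae BJ5465 and were sorted by FACS into low and high (top ~1%) gates on anti-HA and streptavidin fluorescence. Polyreactivity is labelled according to the gate of origin.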
row,Sequence,polyreactivity (PSR sort gate)
1,QVQLVESGGGLVQAGGSLRLSCAASGLIFRAYAMGWYRQAPGKERELVAAISRNGGSTYYADSVKGRFTISRDNAKTTVYLQMNSLKPEDTAVYYCNKVSRSSVYLDYYYWGQGTQVTVSS,high polyreactivity
2,QVQLVESGGGLVQAGGSLRLSCAASGSIFGWYAMGWYRQAPGKEREFVAAISGGSTYYADSVKGRFTISRDNAKNTVYLQMNSLKPEDTAVYYCNAQGYYFYPFDYWGQGTQVTVSS,high polyreactivity
3,QVQLVETGGGLVQAGGSLRLSCAASVRIIWGNAMGWYRQAPGTERELVAALRASGGSTHYADSVKGRFTISRDNAKKTVYFQINSLKPEDTAVYYCIAVKRVGAYWGRSFAYYYWGQGTQVTVSS,high polyreactivity
4,QVQLVESGGGLVQAGGSLRLSCAASGSTFGGYAKGWYRQAPGKERELVAAMSQSGTRTYYADSVKGRFTISRDKAKNTVYLQMNSLKPEDTAVYYCAAEKRFRKYDNWGQGTQVTVSS,high polyreactivity
5,QVQLVESGGGLVQAGGSLRLSCAASGRTFSGYAMGGDIQAPGKERELVAAITARSGSTYYADSVKGRFTISRDNAKNTVYLLMNSLKPEDTAVYYCNAPRYAARFDYWGQGTQVTVSS,high polyreactivity
6,QVQLGESGGRLVQAGGSLRLSCAASGRTIVINAMGWYRKEPGKERELVAAISRGGSTNYADSVKGRFTISRDNAKNTVYLQMNRLKPEDTAVYYCKADYPNWWSPFDYWGQGTQVTVSS,low polyreactivity
7,QVQLEESGGGLVQAGGSHRLSCAASGSIFGGNAMGWYRQAPGKERELVAAITQSGGRTYYADSVKGRCTISRDTAKNTVYLQMNSLKPEDTAVYYCNRVYKSQTTDSYPLSYYYWGQGTQVTVSS,high polyreactivity
8,QVQLVESGGGLVQAGGSLRLSCAASGSTYSYYAMGWYRQAPGKERELVAAITSSGSSTYYADSVKARFTISRDNAKNTVYLPMISLKPEDPAVYYCAAGRYRYTYRYFTAWYGYWGQGTQVTVSS,high polyreactivity
9,QVQLVESGGGLVQAGGSLRLSCAASGSTLSIYAMGWYRQAPGKERELVAAISSIGGSTYYADSVKGRFTISRDNAKNTVYLQMNSLKPEDTAVYYCAAELYGGYYYWGQGTQVTVSS,high polyreactivity
10,QVQLVESGGGLVQAGGSLRLSCAASGSIFASYDMGWYRQAPGKERELVAAISYRGGGTYYADSVKGRVTISRDNAKNTVYLQMNSLKPEDTAVYYCNADTYSNTYRAYDYWGQGTQVTVSS,low polyreactivity
11,QVQLVESGGGLVQAGGSLRLSCAASGRTFKPYAMGWYRQAPGKERELVAAISSRGTSTNYADSVKGRFTISRDNAKNTVYLQMNSLKPEDTAVYYCNRVLLPGPQYQWGKAYDYWGQGTQVTVSS,high polyreactivity
12,QVQLVESGGGLVQAGGSLRLSCAASGRTFHYYAMGWYRQAPGKERELVAAISVSGGSTYYADSVKGRFTISRDNAKNTVYLQMNSLKPEDTAVYYCAADDYLVEHDYWGQGTQVTVSS,low polyreactivity
13,QVQLVESGGGLVQAGGSLRLSCAASGFTSDAYAMGCYRQAPGKDRELVAAISGSGDITYYADSVKGRFTISRDNAKYTVYFQMNSLKPEDTAVYYCSVGSYYAWFYYWGQGTQVTVSS,high polyreactivity
14,QVQLVESGGGLVQAGGSLRLSCAASGRIFPWYTMGWYRQAPGKERELVAAITSGGNTDYADSVKGRFTISRDNAKNSVYLQMNSLKPEETAVYYCAAGGYPGTTYYGYDYWGQGTQVTVSS,low polyreactivity
15,QVQLVESGGGLVQAGGSLRLSCADSGRTFSYNTMGWYRQATGKERELVARITWGGGSTYYADSVKGRFTISRDNAKNTVYLQMNSLKPEDTAVYYCNADLRELSPWYWYSGEMDYWGQGTQVTVSS,low polyreactivity
16,QVQLVESGGGLVQAGGSLRLICAASGFTFTGNAMGWYRQAPGKERELVAAITRGGSTKYADSVKGRITISRDNAMHTVYLQMNSLKPEDTAVYYCAAGVRYYRYYYWGQGTQVTVSS,high polyreactivity
17,QVQLVDSGGGLVQAGGSLRLSCAASGSTFGSYAMGWYRQAPGKERELVAAISWNGGRTYYADSVKGRFTISRDNAKNTVYLQMNSLKPEDTAVYYCAKVVKYQSGGGLDYWGQGTQVTVSS,high polyreactivity
18,QVQLLESGGGLVQAGGSLRFSCAASGFTFPVYAMGWYRQAHGKEREFVAAISWSGGSTSYADSVKGRFTSSRDNAKNTVYLQMNSLKPEDTAVYYCAAEHEQYTQLDYWGQGTQVTVAS,high polyreactivity
19,QVQLVESGGGLVQAGGSLRLSCAASGFIFPANAMGWSRQAPGKEREFVAAISRSGGTTYYADSVKGRFTISRDHAKNTVYLQMNSLKPEDTAVYYCAARYAIGPGYDYWGQGTQVTVSS,high polyreactivity
20,QVQLVESGGGLVQAGGSLRLSCDASGSTFYPNAMGWYRQAPWKERELVAAITTSGGSTYYADSVKGRFTISRDNAKNTVYLQMNSLKPEDTAVYYCAAEVRDRGLEPYGPIYDYWGQGTQVTVSS,high polyreactivity
21,QLQLVESGAGRVQAGGSLRLRCAAAGSILRDNAMVWYRQAPWKEREFVADIRGSDDTTYYADSVKGRFTISRDNGKNSVYLQMNSLKPEDTAVYYSNRDDAWQEYDYWGQGTQVTVSS,low polyreactivity
22,QVQLQESGGGLVQAGGSLRQSYAASGYIFPSLAMGWYRQAPGKEREFVAAIGRGSTNNYADSVKGRFTISRDNAKNTAYQQMNSLKPEDTAVYYCAADASPLTRNLYWGQGTQVTVSS,low polyreactivity

row,Sequence,polyreactivity (PSR sort gate)
1,QVQLEESGGGLVQAGGSLRLSCAASGIIFSGYAMGWYRQAPGKERELVASIRSGSNTYYADSVKGRFTISRDNAKNTVYLQMISLKPEDTAVYYCAARVVPATFRFIRYPHPYYYWGQGTQVTVSS,low polyreactivity
2,QGQHVESGGGLVQAGGSLRLSSAASGITISYYGMGWYRQERGKDRELVASITKRGGRTYYADSVKGRFTISRDNAKNTVYLQMNSLKPEETAVYYCAADRAAPRYDYWGQGTQVTVSS,high polyreactivity
3,QVQLVESGGGLVQAGGSLRLSCAASGSTFLYNAMGWYRQAPWKERELVAAISWSGGSTYYADSVKGRFTISRDNAKNTVYLQMNSLKPEDTAVYYCAAEQRRFTGYDYWGQGTQVTVSS,high polyreactivity
4,QVQLVESGGGLVQAGGSLRLICAASGSTTFYAKGWYRPAPGKEWELVATISSSAGSTYYADSVKGRFTISRDNAKNNVYLEMNSLIPEDTAVFYCDAKYSQLRQYYRLDYWGQGTQVTVSS,low polyreactivity
5,QVHLVESGGGLVQAGGSLRLSCHASGSNFYSYGLGSYRQAPGKERELVAAITSSGGGTYYADSVKGGFTISRDNAKNTVYLQMHSLKPEDTAVYYCNADHFSDNSSTQYDYWGQGTQVTVSS,low polyreactivity
6,QVQLVESGVGLVQAGGSHRLSCAASGPTFRYNTMGWYRQAPGKERELVASISSGDRTDYADSVKGRFTISRDNAKYTVYLQMNSLKPEDTAVYYCNNKWYSIYYYWGQGTQVTVSS,high polyreactivity
7,QVQLVESGGGLVQAGGSIRLSCAASGSTFYLYAMGWSRPAPGKERELVATITNGGGTNYADSVKGRFTISRDNEKNTVYIQMNTLKPEDTAVYYCAATWYHRDGDYWGQGTQVTVSS,low polyreactivity
8,QVQLVESGGGLVQAGGSLRLSCAASGSTIYPYAMGWYRQAPGKERELVAAISSGGRTYYADSEKGRFTISRDKAKNTVYLQMNSLKPEDPAVYYCAARVTKKYRRTYDYWGQGTQVTVSS,high polyreactivity
9,QVQLVESGGGLVQAGGSLRLICSASGSTFNLYAMGWYRQAPWTERELVAAISYRGGTTYYADSVKGRFTISRDNAKHTVYLQMNSLKREDTAVYYCSAGWRPRSLRDASKYDFWGQGTQVTVSS,low polyreactivity
10,QDQLVESGGGLVQAGGSLRLICAASGRTFGSYTMGWYRQAPGKERELVAAITSGGRTNYADSVKGRFTISRDNAKNTVYLQMNSLKPEDTAVYYCAAGWRGGRYRYFAYDYWGQGTQVTVSS,high polyreactivity
11,QFQLVESGGGLVQAGGSLRISCAASGITLRRNAMGWYRQAPGKEREWVAAISWSGGRTYYADSVKGRFTISRDNAKNTVYLQMNSLKPEDTAVYYCAARGYPLTAFDYWGQGTQVTVSS,high polyreactivity
12,QVQLVESGGGLVQAGGSLRLSCAASGRTIGIYAMGLYRQAPGKERELVAAITWSGDSTYYADSVKGRFTISRDNAKNTVYLQMNSLKPEDTAVYYCAAYYLYRYQTMGYWGQGTLVTVSS,low polyreactivity
13,QVQLVESGGGLVQARGSLRLICAASGFTFYRYVMGWYRQAPGKVRELVAAITGRGGSTYYADSVKGRFTISRDNAKNTVYLQMNSRKPEDTAVYYCAARYVTGTLYLAPYEYWGQGTQVTLSS,low polyreactivity
14,QVQLVESVGGLVQAGGSLRLSCAASGSIFTRNTMGWYRQAPGKERELVAAISGGGSSTYYADSVKGRFTISRDNAKNTVYLQMNSLKPEETAVYYCAASLSRNYGYACYEYWGQGTQVTVSS,high polyreactivity
15,QVQLVESWGGLVQAGGSLRLSCAASGRIFKYNAMGWYRQAPGKERELVAAISGGGSTNYADSVKGRFTISRDNAKNTVYLQMNSLKPEDTAVYYCAASDPFEASQYKYDYWGQGTQVTVSS,low polyreactivity
16,QVQLVESGGGLVQAGGSLRLSCAASGRIIRYYVMGWYRQAPGKEREFVASISGRGASTYYADSVKGRFTISRDNAKNTVYLQMNSLKPEDTAVYYWNKESYFDTYRRYDSWGQGTQVTVSS,low polyreactivity
17,QVQLVESGGGLVQAGGSLRLSCAASGLTFHRYAMGWYRQAPGKERELVAAINYSGGRTYYADSVKGRFTISRDNAKNTVYLQMNSLKPEDTAVYYCNKCYVYHPGSLEYGYWGQGTQVTVSS,high polyreactivity
18,QVQLVESGGGLVQAGGSLRLSCAASGSIFGGYAMGWYRQAPGKERELVARIRVSGGRTYYADSVKGRFTISRDNAKNTVYLQMISLKPEDTAVYYCAVDRYWWLDGYDYWGQGTQVTVSS,high polyreactivity
19,QVQLVESGGGLVQAGGSLRLSCAASGSTISPNAMGWYRQAPGKERELVPAITWSGGSNTYADSVKGRFTISRDNAKNTVYLQMNSLKPEDTAVYYCATVGYLYTPVVVTWWDWGDYWGQGTQVTVSS,low polyreactivity
20,QVQHVESGGGLVQAGGSLRLSCAASGNTFLRYAMGWYIKAPGKERELVAAISRSGGSTYYADSVKGRFTISRDTAKNTVYLQMNSLKPEDTAVYYCAARRSSQPDKGYYYWGQGTQVTVSS,high polyreactivity
21,QDQLVESGGGLDQAGGSLRLSCAASGRIFKLYAMGWYRQAPGKERELVAAISKSGGNTYADSVKGRFTISRDNAKNTVYLQMNSLKPEETAVYYCAATVQSTSDPFDYWGQGTQVTVSS,low polyreactivity
